Reference: IntAct's records for PubMed 23893131

B1: Glia maturation factor gamma (Mus musculus), Q9ERL7 (parent)
chain: MSDSLVVCEVDPELKETLRKFRFRKETNNAAIIMKVDKDRQMVVLEDELQNISPEELKLELPERQPRFVVYSYKYVHDDGRVSYPLCFIFSSPVGCKPEQQMMYAGSKNRLVQTAELTKVFEIRTTDDLTETWLKEKLAFFR

Variants of: B1
Conditions: with arpc2_bovin ARPC2, Q3MHR7

| effect of a mutation on the interaction | Variant |
| --- | --- |
| decreasing interaction strength | MSDSLVVCEVDPELKETLRKFRFRKETNNAAIIMKVDKDRQMVVLEDELQNISPEELKLELPERQPRFVVYSYKYVHDDGRVSYPLCFIFSSPVGCKPEQQAMYAGSKNRLVQTAELTKVFEIRTTDDLTETWLKEKLAFFR [M102A] |
| decreasing interaction strength | MSDSLVVCEVDPELKETLRKFRFRKETNNAAIIMKVDKDRQMVVLEDELQNISPEELKLELPERQPRFVVYSYKYVHDDGRVSYPLCFIFSSPVGCKPEQQMMYAGSKNRLVQTAELTKVFEIETTDDLTETWLKEKLAFFR [R124E] |
| decreasing interaction strength | MSDSLVVCEVDPELKETLRKFRFRKETNNAAIIMKVDKDRQMVVLEDELQNISPEELKLELPERQPRFVVYSYKYVHDDGRVSYPLCFIFSSPVGCKPEQQMMYAGSKNRLVQTAELTKVFEIRTTDKLTETWLKEKLAFFR [D128K] |
